Measured values as given in the Human Domainome abundance scans (Beltran et al. 2025).
± gives the uncertainty stated by the source.

B1: Protein maelstrom homolog, residues 3 to 71; numbered along this chain, Q96JY0 (parent)
chain: NRKASRNAYYFFVQEKIPELRRRGLPVARVADAIPYCSSDWALLREEEKEKYAEMAREWRAAQGKDPGP

Variants of: B1
Test: abundance fitness (aPCA) (normalised: wild type 0, dead -1); higher = more abundant; growth selection in yeast, the domain comes from the species named
Conditions: Homo sapiens

In order of rising abundance fitness:
1. NRKASRNAYYFFVQEKIPELRRRGLPVARVADAIPYCSSDWALLREEEKEKYAEMAREWRAAQGMDPGP [K65M]  -0.497 ± 0.14
2. NRKASRNAYYFFVQEKIPELRRRGLPVARVADAIPYCSSDWALLREEEKEKYAEMAWEWRAAQGKDPGP [R57W]  -0.378 ± 0.094
3. NRKASRNAYYFFVQEKIPELRRRGLPVARVADAIPYCSSDWALLREEEKEKYAEMAREWRAAQGTDPGP [K65T]  -0.26 ± 0.079
4. NRKASRNAYYFFVQEKIPELRRRGLPVARVADAIPYCSSDWALLREEEKEKYAEMAREWRAAQGHDPGP [K65H]  -0.259 ± 0.11
5. NRKASRNAYYFFVQEKIPELRRRGLPVARVADAIPYCSSDWALLREEEKEKYAEMAYEWRAAQGKDPGP [R57Y]  -0.236 ± 0.23
6. NRKASRNAYYFFVQEKIPELRRRGLPVARVADAIPYCSSDWALLREEEKEKYAEMAREWRAAQGADPGP [K65A]  -0.206 ± 0.071
7. NRKASRNAYYFFVQEKIPELRRRGLPVARVADAIPYCSSDWALLREEEKEKYAEMAREWRAAQGLDPGP [K65L]  -0.175 ± 0.068
8. NRKASRNAYYFFVQEKIPELRRRGLPVARVADAIPYCSSDWALLREEEKEKYAEMAREWRAAQGSDPGP [K65S]  -0.154 ± 0.066
9. NRKASRNAYYFFVQEKIPELRRRGLPVARVADAIPYCSSDWALLREEEKEKYAEMANEWRAAQGKDPGP [R57N]  -0.135 ± 0.17
10. NRKASRNAYYFFVQEKIPELRRRGLPVARVADAIPYCSSDWALLREEEKEKYAEMAREWRAAQGPDPGP [K65P]  -0.134 ± 0.092
11. NRKASRNAYYFFVQEKIPELRRRGLPVARVADAIPYCSSDWALLREEEKEKYAEMAREWRAAQGVDPGP [K65V]  -0.12 ± 0.065
12. NRKASRNAYYFFVQEKIPELRRRGLPVARVADAIPYCSSDWALLREEEKEKYAEMAREWRAAQGFDPGP [K65F]  -0.117 ± 0.1
13. NRKASRNAYYFFVQEKIPELRRRGLPVARVADAIPYCSSDWALLREEEKEKYAEMAREWRAAQGNDPGP [K65N]  -0.116 ± 0.14
14. NRKASRNAYYFFVQEKIPELRRRGLPVARVADAIPYCSSDWALLREEEKEKYAEMAREWRAAQGYDPGP [K65Y]  -0.109 ± 0.17
15. NRKASRNAYYFFVQEKIPELRRRGLPVARVADAIPYCSSDWALLREEEKEKYAEMAQEWRAAQGKDPGP [R57Q]  -0.104 ± 0.1
16. NRKASRNAYYFFVQEKIPELRRRGLPVARVADAIPYCSSDWALLREEEKEKYAEMAVEWRAAQGKDPGP [R57V]  -0.093 ± 0.099
17. NRKASRNAYYFFVQEKIPELRRRGLPVARVADAIPYCSSDWALLREEEKEKYAEMAREWRAAQGQDPGP [K65Q]  -0.084 ± 0.089
18. NRKASRNAYYFFVQEKIPELRRRGLPVARVADAIPYCSSDWALLREEEKEKYAEMAREWRAAQGEDPGP [K65E]  -0.082 ± 0.078
19. NRKASRNAYYFFVQEKIPELRRRGLPVARVADAIPYCSSDWALLREEEKEKYAEMATEWRAAQGKDPGP [R57T]  -0.054 ± 0.098
20. NRKASRNAYYFFVQEKIPELRRRGLPVARVADAIPYCSSDWALLREEEKEKYAEMAREWRAAQGGDPGP [K65G]  -0.048 ± 0.046
21. NRKASRNAYYFFVQEKIPELRRRGLPVARVADAIPYCSSDWALLREEEKEKYAEMAREWRAAQGRDPGP [K65R]  -0.037 ± 0.042
22. NRKASRNAYYFFVQEKIPELRRRGLPVARVADAIPYCSSDWALLREEEKEKYAEMASEWRAAQGKDPGP [R57S]  -0.034 ± 0.09
23. NRKASRNAYYFFVQEKIPELRRRGLPVARVADAIPYCSSDWALLREEEKEKYAEMAREWRAAQPKDPGP [G64P]  -0.022 ± 0.077
24. NRKASRNAYYFFVQEKIPELRRRGLPVARVADAIPYCSSDWALLREEEKEKYAEMAREWRAAQLKDPGP [G64L]  -0.018 ± 0.054
25. NRKASRNAYYFFVQEKIPELRRRGLPVARVADAIPYCSSDWALLREEEKEKYAEMAMEWRAAQGKDPGP [R57M]  -0.01 ± 0.11
26. NRKASRNAYYFFVQEKIPELRRRGLPVARVADAIPYCSSDWALLREEEKEKYAEMAREWRAAQMKDPGP [G64M]  -0.008 ± 0.068
27. NRKASRNAYYFFVQEKIPELRRRGLPVARVADAIPYCSSDWALLREEEKEKYAEMAKEWRAAQGKDPGP [R57K]  0.001 ± 0.13
28. NRKASRNAYYFFVQEKIPELRRRGLPVARVADAIPYCSSDWALLREEEKEKYAEMALEWRAAQGKDPGP [R57L]  0.003 ± 0.073
29. NRKASRNAYYFFVQEKIPELRRRGLPVARVADAIPYCSSDWALLREEEKEKYAEMAREWRAAQSKDPGP [G64S]  0.035 ± 0.049
30. NRKASRNAYYFFVQEKIPELRRRGLPVARVADAIPYCSSDWALLREEEKEKYAEMAREWRAAQKKDPGP [G64K]  0.048 ± 0.071
31. NRKASRNAYYFFVQEKIPELRRRGLPVARVADAIPYCSSDWALLREEEKEKYAEMAREWRAAQGCDPGP [K65C]  0.074 ± 0.13
32. NRKASRNAYYFFVQEKIPELRRRGLPVARVADAIPYCSSDWALLREEEKEKYAEMAREWRAAQCKDPGP [G64C]  0.082 ± 0.082
33. NRKASRNAYYFFVQEKIPELRRRGLPVARVADAIPYCSSDWALLREEEKEKYAEMAREWRAAQEKDPGP [G64E]  0.088 ± 0.06
34. NRKASRNAYYFFVQEKIPELRRRGLPVARVADAIPYCSSDWALLREEEKEKYAEMAREWRAAQRKDPGP [G64R]  0.116 ± 0.047
35. NRKASRNAYYFFVQEKIPELRRRGLPVARVADAIPYCSSDWALLREEEKEKYAEMAREWRAAQAKDPGP [G64A]  0.146 ± 0.034
36. NRKASRNAYYFFVQEKIPELRRRGLPVARVADAIPYCSSDWALLREEEKEKYAEMAREWRAAQQKDPGP [G64Q]  0.165 ± 0.073
37. NRKASRNAYYFFVQEKIPELRRRGLPVARVADAIPYCSSDWALLREEEKEKYAEMAREWRAAQVKDPGP [G64V]  0.196 ± 0.046
38. NRKASRNAYYFFVQEKIPELRRRGLPVARVADAIPYCSSDWALLREEEKEKYAEMAREWRAAQNKDPGP [G64N]  0.214 ± 0.095
39. NRKASRNAYYFFVQEKIPELRRRGLPVARVADAIPYCSSDWALLREEEKEKYAEMAREWTAAQGKDPGP [R60T]  0.322 ± 0.24
